Assay results from publication PMC6393246, “Structural identification of conserved RNA binding sites in herpesvirus ORF57 homologs: implications for PAN RNA recognition” (Nucleic Acids Research, 2018).

What was measured:
ksORF57 68-178 = molecular target: T1, ksORF57 68-178 (Kaposi's sarcoma-associated herpesvirus …, UniProt Q2HR75 68-178); assay: NMR HSQC; equimolar, 50 uM protein; substantial broadening; SPR: 20 mM HEPES, 250 mM NaCl, 0.05% Tween-20, pH 7.4, 25 C, protein up to 1 uM; NMR: 20 mM Na phosphate, 50 mM NaCl, 50 mM L-Arg, 50 mM L-Glu, 1 mM EDTA, 2 mM; conditions: protein: recombinant; tags: His-tag (purification), 15N labelled
T1 sequence: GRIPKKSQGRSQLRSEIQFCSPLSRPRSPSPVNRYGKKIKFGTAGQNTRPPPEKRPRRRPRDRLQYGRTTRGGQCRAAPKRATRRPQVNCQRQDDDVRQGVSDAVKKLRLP

[1] = molecular target: the molecule itself; assay: SEC-MALS; 0.5 ml at 1 mg/ml on Superdex 200 10/300GL, gel filtration buffer (20 mM HEPES, 150 mM NaCl, 50 mM L-Arg, 50 mM L-Glu, 1 mM TCEP, pH 7.4); homo-dimer
hvsORF57Δ146 [2] = molecular target: T2, hvsORF57Δ146 (herpesvirus saimiri (HVS), UniProt P13199 146-417); assay: X-ray crystallography; same U-bend interaction as PAN17; data not shown; SPR: 20 mM HEPES, 250 mM NaCl, 0.05% Tween-20, pH 7.4, 25 C, protein up to 1 uM; NMR: 20 mM Na phosphate, 50 mM NaCl, 50 mM L-Arg, 50 mM L-Glu, 1 mM EDTA, 2 mM; conditions: protein: recombinant; tags: thioredoxin/Strep tag cleaved by HRV3C; residue 145 is cloning Gly; chain copies: 2
hvsORF57Δ146 [3] = molecular target: T2, hvsORF57Δ146; assay: SPR; SPR: 20 mM HEPES, 250 mM NaCl, 0.05% Tween-20, pH 7.4, 25 C, protein up to 1 uM; NMR: 20 mM Na phosphate, 50 mM NaCl, 50 mM L-Arg, 50 mM L-Glu, 1 mM EDTA, 2 mM; conditions: protein: recombinant; tags: thioredoxin/Strep tag cleaved by HRV3C; residue 145 is cloning Gly; chain copies: 2; label: 5'-biotin
UL69 200-540 = molecular target: T3, UL69 200-540 (HCMV, UniProt P16749 200-540); assay: as above; conditions: protein: recombinant; tags: Strep-tag (purification); chain copies: 4; label: 5'-biotin
T3 sequence: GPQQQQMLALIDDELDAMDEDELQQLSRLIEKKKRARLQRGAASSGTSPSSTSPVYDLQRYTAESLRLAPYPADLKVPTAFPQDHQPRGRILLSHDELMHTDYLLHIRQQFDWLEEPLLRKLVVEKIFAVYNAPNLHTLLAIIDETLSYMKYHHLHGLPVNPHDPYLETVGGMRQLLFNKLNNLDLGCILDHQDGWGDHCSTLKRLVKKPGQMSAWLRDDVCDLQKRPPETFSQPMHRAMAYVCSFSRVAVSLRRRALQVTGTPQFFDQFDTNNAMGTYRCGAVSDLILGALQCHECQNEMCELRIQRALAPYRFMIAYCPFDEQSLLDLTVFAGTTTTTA

ksORF57Δ153 = molecular target: T4, ksORF57Δ153 (Kaposi's sarcoma-associated herpesvirus …, UniProt Q2HR75 153-455); assay: as above; conditions: protein: recombinant; tags: thioredoxin/Strep tag cleaved by HRV3C; chain copies: 2; label: 5'-biotin
T4 sequence: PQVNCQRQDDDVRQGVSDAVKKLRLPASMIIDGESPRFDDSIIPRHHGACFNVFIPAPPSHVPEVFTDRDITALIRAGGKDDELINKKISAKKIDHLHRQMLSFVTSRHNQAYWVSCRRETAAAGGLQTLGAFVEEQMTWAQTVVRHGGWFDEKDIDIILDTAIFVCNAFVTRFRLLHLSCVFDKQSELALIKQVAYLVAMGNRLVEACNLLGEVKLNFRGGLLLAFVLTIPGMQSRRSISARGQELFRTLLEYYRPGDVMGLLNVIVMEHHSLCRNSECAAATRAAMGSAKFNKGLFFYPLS

ICP27Δ241 = ICP27Δ241 (HSV-1, UniProt P10238 241-512); assay: as above; conditions: protein: recombinant; tags: Strep-tag (purification); label: 5'-biotin
hvsORF57Δ146 [4] = molecular target: T2, hvsORF57Δ146; assay: X-ray crystallography; Zn2+ in protein; Mg2+/Ca2+ in crystallization; SPR: 20 mM HEPES, 250 mM NaCl, 0.05% Tween-20, pH 7.4, 25 C, protein up to 1 uM; NMR: 20 mM Na phosphate, 50 mM NaCl, 50 mM L-Arg, 50 mM L-Glu, 1 mM EDTA, 2 mM; conditions: protein: recombinant; tags: thioredoxin/Strep tag cleaved by HRV3C; residue 145 is cloning Gly; chain copies: 2

B1: 14merS (ssRNA)
RNA: CAGUCGCGAAGAGG
binding result (ksORF57 68-178): binds

B2: HVS ORF57 residues 146–417 (hvsORF57Δ146) (domain or fragment)
chain: PLLKLFDISILPKSGEPKLFLPVPSLPCQEAEKTNDKYVLAMAQRAMHDVPISSKQLTANLLPVKFKPLLSIVRYTPNYYYWVSMRKETIASANLCTVAAFLDESLCWGQQYLKNDFIFSENGKDIILDTSSALLSQLVHKIKMLPFCHCLMQTTPQDHIVKQVCYLIASNNRILDAVRYLQTSVIKSPIVLLLAYAVCLPAAIICTKNETQLYSHCMRILKEYRPGDVMNILHESLTQHLNKCPSSTCAYTTRAIVGTKANTTGLFFLPTQ
notes: ORF57 (ICP27 homolog) of herpesvirus saimiri (HVS), residues 146-417, the C-terminal ICP27-homology domain; Selenomethionine-derivatised protein was used for crystals of the free form; native protein for the RNA complex and SEC-MALS; also called C-terminal IHD of hvsORF57; C-terminal ICP27-homology domain of HVS ORF57; source: E. coli T7 express LysY, purified (StrepTrap HP, HRV3C cleavage, …)
stoichiometry N [1]: 2

B3: KSHV ORF57 residues 153–455 (ksORF57Δ153) (domain or fragment)
chain: T4 sequence
notes: ORF57/Mta (ICP27 homolog) of Kaposi's sarcoma-associated herpesvirus (KSHV), residues 153-455, the C-terminal ICP27-homology domain; also called C-terminal IHD of ksORF57; source: E. coli T7 express LysY, purified (StrepTrap HP, HRV3C cleavage, Superdex 75); not shown: thioredoxin, N-terminal, cleaved
stoichiometry N [1]: 2

B4: PAN 42-49 (ssRNA)
RNA: GAUUUUGU
binding result (hvsORF57Δ146 [2]): binds

B5: PAN17 (5'-biotin) (ssRNA)
RNA: CACCUAUGGAUUUUGUG
binding result (hvsORF57Δ146 [3]): binds
binding result (UL69 200-540): binds
binding result (ksORF57Δ153): binds
binding result (ICP27Δ241): no binding

B6: 14merS (5'-biotin) (ssRNA)
RNA: CAGUCGCGAAGAGG
binding result (UL69 200-540): binds
binding result (ICP27Δ241): no binding

B7: 14mer1 (5'-biotin) (ssRNA)
RNA: CCGUCCCCGCCGCU
binding result (hvsORF57Δ146 [3]): no binding
binding result (UL69 200-540): binds
binding result (ksORF57Δ153): no binding
binding result (ICP27Δ241): no binding

B8: PAN17 (crystal) (ssRNA)
RNA: CACCUAUGGAUUUUGUG
binding result (hvsORF57Δ146 [4]): binds
